We go through five molecules from US20070105155A1 (Janssen / Centocor, published 2007).

Assay [1] deals with GST-CaM fusion protein (Homo sapiens (Human), UniProt P0DP23 2-149). Nature of the assay: GST pull-down on agarose-GSH beads, 35S-labelled fragment, SDS/PAGE and autoradiography.
In assay [2] the target is T1, GST (UniProt P08515 1-218 = GST).
T1 construct: Negative control bait; also called glutathione S-transferase control
Nature of the assay: GST pull-down control (GST alone on beads), autoradiography, FIG. 2C. The protocol: Agarose-GSH beads (50% (vol./vol.)) bound with about 1 μg of GST or GST-CaM were incubated with 10 μl of ³⁵S-labelled TRPM8 fragment for 30 min at room temperature in a final volume of 200 μl of binding buffer. At the end of the incubation, the beads were washed three times with 1.0 ml of binding buffer and resuspended in 20 μl of 2× laemmli's sample loading buffer. Protein(s) bound to the beads, including the GST-CaM fusion protein, and possibly the ³⁵S-labelled TRPM8 fragment that interact with the GST-CaM fusion protein, were separated by SDS/PAGE followed by autoradiography.

T1 sequence (P08515 whole entry): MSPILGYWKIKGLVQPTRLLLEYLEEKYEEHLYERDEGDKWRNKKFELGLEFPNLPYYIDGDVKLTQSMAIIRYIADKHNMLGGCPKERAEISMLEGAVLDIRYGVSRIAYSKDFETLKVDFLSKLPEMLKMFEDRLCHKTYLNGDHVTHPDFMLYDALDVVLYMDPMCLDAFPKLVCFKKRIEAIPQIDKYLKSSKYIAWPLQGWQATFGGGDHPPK

B1: TRPM8-2 fragment (rat TRPM8 M353-T690) (other)
chain: MVKEKLVRFLPRTVSRLPEEEIESWIKWLKEILESPHLLTVIKMEEAGDEVVSSAISYALYKAFSTNEQDKDNWNGQLKLLLEWNQLDLASDEIFTNDRRWESADLQEVMFTALIKDRPKFVRLFLENGLNLQKFLTNEVLTELFSTHFSTLVYRNLQIAKNSYNDALLTFVWKLVANFRRSFWKEDRSSREDLDVELHDASLTTRHPLQALFIWAILQNKKELSKVIWEQTKGCTLAALGASKLLKTLAKVKNDINAAGESEELANEYETRAVELFTECYSSDEDLAEQLLVYSCEAWGGSNCLELAVEATDQHFIAQPGVQNFLSKQWYGEISRDT
modifications: 35S-methionine labelled
notes: In vitro translated from pAGA3; also called TRPM8-2/pAGA3; rTRPM8-2
With B1, the binding result in assay [1] is listed as “no binding”.

B2: TRPM8-10 fragment (rat TRPM8 D198-S352) (other)
chain: DNTISRNSEENIVAIGIAAWGMVSNRDTLIRNCDDEGHFSAQYIMDDFMRDPLYILDNNHTHLLLVDNGCHGHPTVEAKLRNQLEKYISERTSQDSNYGGKIPIVCFAQGGGRETLKAINTSVKSKIPCVVVEGSGQIADVIASLVEVEDVLTSS
modifications: 35S-methionine labelled
notes: In vitro translated from pAGA3; The forward primer carries an NcoI site (start ATG before D198); also called TRPM8-10/pAGA3; rTRPM8-10
On to B2, for which the binding result in assay [1] and in assay [2] was “no binding” throughout.

B3: TRPM8-8 fragment (rat TRPM8 M219-S352) (other)
chain: MVSNRDTLIRNCDDEGHFSAQYIMDDFMRDPLYILDNNHTHLLLVDNGCHGHPTVEAKLRNQLEKYISERTSQDSNYGGKIPIVCFAQGGGRETLKAINTSVKSKIPCVVVEGSGQIADVIASLVEVEDVLTSS
modifications: 35S-methionine labelled
notes: In vitro translated from pAGA3; also called TRPM8-8/pAGA3; rTRPM8-8
Turning to B3, the binding result in assay [1] and in assay [2] was “no binding” each time.

B4: TRPM8-9 fragment (rat TRPM8 A172-S352) (other)
chain: AQSKGAWILTGGTHYGLMKYIGEVVRDNTISRNSEENIVAIGIAAWGMVSNRDTLIRNCDDEGHFSAQYIMDDFMRDPLYILDNNHTHLLLVDNGCHGHPTVEAKLRNQLEKYISERTSQDSNYGGKIPIVCFAQGGGRETLKAINTSVKSKIPCVVVEGSGQIADVIASLVEVEDVLTSS
modifications: 35S-methionine labelled
notes: In vitro translated from pAGA3; The forward primer carries an NcoI site (start ATG before A172); also called TRPM8-9/pAGA3; rTRPM8-9
With B4, the binding result in assay [1] and in assay [2] was “no binding” throughout.

B5: TRPM8-7 fragment (rat TRPM8 V145-S352) (other)
chain: VISVTGGAKNFALKPRMRKIFSRLIYIAQSKGAWILTGGTHYGLMKYIGEVVRDNTISRNSEENIVAIGIAAWGMVSNRDTLIRNCDDEGHFSAQYIMDDFMRDPLYILDNNHTHLLLVDNGCHGHPTVEAKLRNQLEKYISERTSQDSNYGGKIPIVCFAQGGGRETLKAINTSVKSKIPCVVVEGSGQIADVIASLVEVEDVLTSS
modifications: 35S-methionine labelled
notes: In vitro translated from pAGA3; The forward primer carries an NcoI site (start ATG before V145); also called TRPM8-7/pAGA3; rTRPM8-7
For B5, in assay [2], the binding result is reported as “no binding”.
